{"source": "patent US20060115897A1", "molecular_target": "C4b (UniProt P0C0L4)", "sequence (P0C0L4 20-1744)": "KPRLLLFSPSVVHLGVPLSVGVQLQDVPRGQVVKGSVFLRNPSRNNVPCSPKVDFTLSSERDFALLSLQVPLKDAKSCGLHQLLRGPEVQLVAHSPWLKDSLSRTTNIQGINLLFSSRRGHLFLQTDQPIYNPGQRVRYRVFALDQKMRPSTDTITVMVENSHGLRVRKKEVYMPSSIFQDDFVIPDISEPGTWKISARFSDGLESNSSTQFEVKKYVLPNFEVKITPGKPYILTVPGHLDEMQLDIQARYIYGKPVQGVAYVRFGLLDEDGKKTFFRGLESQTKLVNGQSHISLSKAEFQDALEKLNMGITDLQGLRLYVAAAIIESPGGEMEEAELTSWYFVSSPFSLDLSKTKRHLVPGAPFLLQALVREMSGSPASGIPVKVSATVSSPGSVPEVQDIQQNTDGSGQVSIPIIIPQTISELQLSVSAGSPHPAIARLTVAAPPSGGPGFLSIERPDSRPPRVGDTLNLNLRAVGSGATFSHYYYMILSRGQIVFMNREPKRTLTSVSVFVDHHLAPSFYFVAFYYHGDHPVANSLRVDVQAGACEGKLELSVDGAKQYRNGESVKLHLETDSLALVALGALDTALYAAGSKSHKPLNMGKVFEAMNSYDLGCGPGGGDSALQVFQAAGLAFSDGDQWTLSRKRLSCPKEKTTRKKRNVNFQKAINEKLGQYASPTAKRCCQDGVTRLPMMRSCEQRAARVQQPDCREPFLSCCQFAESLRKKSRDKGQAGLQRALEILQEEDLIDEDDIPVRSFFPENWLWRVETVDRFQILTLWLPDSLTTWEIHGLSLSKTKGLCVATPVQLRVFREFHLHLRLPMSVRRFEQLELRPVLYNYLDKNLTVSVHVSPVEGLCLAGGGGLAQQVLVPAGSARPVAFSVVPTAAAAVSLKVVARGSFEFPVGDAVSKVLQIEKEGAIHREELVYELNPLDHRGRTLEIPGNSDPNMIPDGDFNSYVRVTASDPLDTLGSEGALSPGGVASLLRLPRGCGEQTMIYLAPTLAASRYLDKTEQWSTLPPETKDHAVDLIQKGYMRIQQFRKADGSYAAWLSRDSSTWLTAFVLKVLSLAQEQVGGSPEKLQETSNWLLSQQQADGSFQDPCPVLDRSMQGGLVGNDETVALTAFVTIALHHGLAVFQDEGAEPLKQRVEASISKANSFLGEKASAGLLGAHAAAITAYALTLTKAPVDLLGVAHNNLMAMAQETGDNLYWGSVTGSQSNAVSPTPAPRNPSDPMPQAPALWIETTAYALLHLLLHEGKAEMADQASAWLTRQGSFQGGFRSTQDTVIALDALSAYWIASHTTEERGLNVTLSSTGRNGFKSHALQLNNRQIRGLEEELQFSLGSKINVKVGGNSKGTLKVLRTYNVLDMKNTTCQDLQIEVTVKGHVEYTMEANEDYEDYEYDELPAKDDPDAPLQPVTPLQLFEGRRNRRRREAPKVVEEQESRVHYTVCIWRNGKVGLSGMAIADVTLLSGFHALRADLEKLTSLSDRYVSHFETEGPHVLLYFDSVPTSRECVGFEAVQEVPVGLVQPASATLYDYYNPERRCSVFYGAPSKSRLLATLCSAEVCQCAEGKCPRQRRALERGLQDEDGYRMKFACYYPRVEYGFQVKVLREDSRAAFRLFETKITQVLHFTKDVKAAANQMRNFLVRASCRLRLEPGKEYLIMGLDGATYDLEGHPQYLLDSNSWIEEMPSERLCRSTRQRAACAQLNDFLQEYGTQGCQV", "experiment": "cell-based or functional assay"}
{"substance": "soluble human CR1 (from UniProt P17927 42-1971) (receptor)", "values": [{"measurement": "time to 50% degradation of the C4bα′ chain (cofactor activity for factor I, densitometry)", "result": 15, "unit": "min"}]}
